Experimental data as given in paper PMC13365404.

Molecular target: EBOV GP ectodomain for structural work (EBOV Mayinga, residues 33-651, mucin-like domain deleted, double Strep-tag) (Orthoebolavirus zairense (Ebola virus, EBOV), Mayinga) (UniProt Q05320)
Experiment: cryo-EM structure

Substance “EBOV GP ectodomain for structural work (EBOV Mayinga, residues 33-651, mucin-like domain deleted, double Strep-tag) (from UniProt Q05320 33-651) (domain or fragment)” has a stoichiometry N of 3.
